Data reported in patent US20240117065A1.

Experiments:
Assay in all cases: cell-based or functional assay
[1] = molecular target: Membrane-bound CD73 in MDA-MB-231 cells (UniProt P21589)
[2] = molecular target: Soluble CD73 in MDA-MB-231 cells (UniProt P21589)
[3] = molecular target: Catalytically active human CD73 (biochemical assay) (human) (UniProt P21589)
[4] = molecular target: Catalytically active mouse CD73 (biochemical assay) (mouse) (UniProt Q61503)
[5] = molecular target: Membrane-bound mouse CD73 (internalisation assay) (mouse) (UniProt Q61503)
[6] = molecular target: Membrane-bound human CD73 (internalisation assay) (human) (UniProt P21589)

% Inhibition of CD73 (cell-based assay), Membrane-bound [1]	Max % Act Mean [1]	Max % Act n = 1 [1]	Max % Act n = 2 [1]	% Inhibition of CD73 (cell-based assay), soluble [2]	% Inhibition of CD73 (biochemical assay), Human [3]	% Inhibition of CD73 (biochemical assay), Mouse [4]	% internalisation of membrane-bound CD73, Mouse [5]	Murine % Inh, n = 1 (receptor internalisation assay) [5]	Murine % Inh, n = 2 (receptor internalisation assay) [5]	% internalisation of membrane-bound CD73, Human [6]	Human % Inh, n = 1 (receptor internalisation assay) [6]	Human % Inh, n = 2 (receptor internalisation assay) [6]	Substance
68.2%	68.8%	69.5%	68%	77.1%	91.3%	17.8%	6.46%	5.18%	7.74%	47.5%	49%	46%	IPH53 (antibody)
42%	41.8%	35.5%	48%	40%	42.3%	49.1%	70.9%	62.5%	79.4%	58%	49.9%	66.2%	MEDI9447 (antibody)
29.9%	31%	30%	32%	10.4%	20%	21.3%	7.14%	5.18%	9.09%	61.7%	8.99%	61.7%	BMS-986179 (antibody)
	3.5%		3.5%										IgG1K (antibody)
